Measurements published in the supplement of paper PMC10567573.

B1: MTMR15 (parent)
chain: FSPDFTLRNTLKSTSEDSLVKQEC
B2: RPS21 (parent)
chain: AEVSWEPGRREGCDICAGKAGCPI

Variants of: B1
Assay: protein stability index of a GFP-peptide fusion (GPS, HEK-293T) (PSI 1-6); higher = more stable
Conditions: c terminus: a fixed tail appended
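Also: lentivirally expressed fusions sorted by FACS into six bins by GFP to DsRed ratio, PSI derived from sequencing read proportions per bin multiplied by bin number.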

Variant | protein stability index
FSPDFTLRNTLKSTSEDSLVKQQC | 2.3
FSPDNTLRNTLKSTSEDSLVKQEC | 3.82
FSPDFTLRNTLKSTSEFSLVKQEC | 2.8
FSPDFTLRNTLKSTSEDSLVTQEC | 2.1

Variants of: B2
Assay: as above
Conditions: c terminus: a fixed tail appended

Variant | protein stability index
AEVSWEPGRRLGCDICAGKAGCPI | 2.46
AEVSWEPGRRCGCDICAGKAGCPI | 3.22
AEVSWEPGRRNGCDICAGKAGCPI | 2.55
AEVSWEPGRRAGCDICAGKAGCPI | 1.95
AEVSWEPGRRSGCDICAGKAGCPI | 2.96
AEVSWEPGRRWGCDICAGKAGCPI | 2.13
AEVSWEPGRRFGCDICAGKAGCPI | 4.96
AEVSWEPGRRKGCDICAGKAGCPI | 2.6
AEVSWEPGRRYGCDICAGKAGCPI | 2.69
AEVSWEPGRRIGCDICAGKAGCPI | 2.56
AEVSWEPGRRGGCDICAGKAGCPI | 1.99
AEVSWEPGRRTGCDICAGKAGCPI | 2.87
AEVSWEPGRRDGCDICAGKAGCPI | 3.37
AEVSWEPGRRHGCDICAGKAGCPI | 3.53
AEVSWEPGRRPGCDICAGKAGCPI | 2.92
AEVSWEPGQREGCDICAGKAGCPI | 3.75
AEVSWEPGTREGCDICAGKAGCPI | 3.67
AEVSWEPGIREGCDICAGKAGCPI | 3.14
AEVSWEPGPREGCDICAGKAGCPI | 3.26
AEVSWEPGMREGCDICAGKAGCPI | 3.02
AEVSWEPGLREGCDICAGKAGCPI | 3.49
AEVSWEPGNREGCDICAGKAGCPI | 3.35
AEVSWEPGDREGCDICAGKAGCPI | 4.04

Variant | protein stability index
AEVSWEPGWREGCDICAGKAGCPI | 2.67
AEVSWEPGFREGCDICAGKAGCPI | 3.89
AEVSWEPGAREGCDICAGKAGCPI | 3.95
AEVSWEPGYREGCDICAGKAGCPI | 3.1
AEVSWEPGRKEGCDICAGKAGCPI | 3.32
AEVSWEPGRYEGCDICAGKAGCPI | 4.13
AEVSWEPGRCEGCDICAGKAGCPI | 3.8
AEVSWEPGRIEGCDICAGKAGCPI | 2.91
AEVSWEPGREEGCDICAGKAGCPI | 2.81
AEVSWEPGRAEGCDICAGKAGCPI | 3.49
AEVSWEPGRHEGCDICAGKAGCPI | 4.11
AEVSWEPGRNEGCDICAGKAGCPI | 3.47
AEVSWEPGRSEGCDICAGKAGCPI | 3.14
AEVSWEPGRLEGCDICAGKAGCPI | 2.84
AEVSWEPGRGEGCDICAGKAGCPI | 2.52
AEVSWEPGRPEGCDICAGKAGCPI | 1.9
AEVSWEPGRQEGCDICAGKAGCPI | 3.09
AEVSWEPGRVEGCDICAGKAGCPI | 2.69
AEVSWEPGRFEGCDICAGKAGCPI | 2.46
AEVSWEPGRTEGCDICAGKAGCPI | 3.2
AEVSTEPGRREGCDICAGKAGCPI | 4.04
AEVSQEPGRREGCDICAGKAGCPI | 4.19
AEVSSEPGRREGCDICAGKAGCPI | 4.06

Variant | protein stability index
AEVSDEPGRREGCDICAGKAGCPI | 4.85
AEVSVEPGRREGCDICAGKAGCPI | 4.44
AEVSPEPGRREGCDICAGKAGCPI | 5.67
AEVSEEPGRREGCDICAGKAGCPI | 4.64
AEVSCEPGRREGCDICAGKAGCPI | 4.24
AEVSMEPGRREGCDICAGKAGCPI | 3.06
AEVSYEPGRREGCDICAGKAGCPI | 2.91
AEVSFEPGRREGCDICAGKAGCPI | 3.53
AEVSIEPGRREGCDICAGKAGCPI | 3.7
AEVSREPGRREGCDICAGKAGCPI | 3.04
AEVSLEPGRREGCDICAGKAGCPI | 3.12
AEVSKEPGRREGCDICAGKAGCPI | 4.84
AEVYWEPGRREGCDICAGKAGCPI | 2.92
AEVGWEPGRREGCDICAGKAGCPI | 3.64
AEVCWEPGRREGCDICAGKAGCPI | 3.24
AEVWWEPGRREGCDICAGKAGCPI | 2.79
AEVMWEPGRREGCDICAGKAGCPI | 1.58
AEVEWEPGRREGCDICAGKAGCPI | 4.2
AEVLWEPGRREGCDICAGKAGCPI | 3.81
AEVDWEPGRREGCDICAGKAGCPI | 3.41
AEVTWEPGRREGCDICAGKAGCPI | 2.54
AEVKWEPGRREGCDICAGKAGCPI | 3.77
AEVNWEPGRREGCDICAGKAGCPI | 4.34

Variant | protein stability index
AEVVWEPGRREGCDICAGKAGCPI | 3.23
AEVFWEPGRREGCDICAGKAGCPI | 2.45
AEVAWEPGRREGCDICAGKAGCPI | 4.39
AEVSWEPGRREGRDICAGKAGCPI | 4.04
AEVSWEPGRREGADICAGKAGCPI | 2.49
AEVSWEPGRREGTDICAGKAGCPI | 4.38
AEVSWEPGRREGFDICAGKAGCPI | 3.97
AEVSWEPGRREGYDICAGKAGCPI | 3.84
AEVSWEPGRREGDDICAGKAGCPI | 4.06
AEVSWEPGRREGEDICAGKAGCPI | 4.21
AEVSWEPGRREGMDICAGKAGCPI | 4.01
AEVSWEPGRREGGDICAGKAGCPI | 3.88
AEVSWEPGRREGHDICAGKAGCPI | 4.27
AEVSWEPGRREGVDICAGKAGCPI | 5.29
AEVSWEPGRREKCDICAGKAGCPI | 2.5
AEVSWEPGRREMCDICAGKAGCPI | 4.41
AEVSWEPGRREQCDICAGKAGCPI | 2.45
AEVSWEPGRREWCDICAGKAGCPI | 4.38
AEVSWEPGRRENCDICAGKAGCPI | 3.07
AEVSWEPGRREVCDICAGKAGCPI | 2.63
AEVSWEPGRRECCDICAGKAGCPI | 3.29
AEVSWEPGRRETCDICAGKAGCPI | 3.67
AEVSWEPGRREDCDICAGKAGCPI | 4.16

Variant | protein stability index
AEVSWEPGRREECDICAGKAGCPI | 3.86
AEVSWEPGRREICDICAGKAGCPI | 2.52
AEVSWEPGRREPCDICAGKAGCPI | 3.21
FEVSWEPGRREGCDICAGKAGCPI | 1.94
EEVSWEPGRREGCDICAGKAGCPI | 3.49
YEVSWEPGRREGCDICAGKAGCPI | 2.76
SEVSWEPGRREGCDICAGKAGCPI | 2.71
CEVSWEPGRREGCDICAGKAGCPI | 2.9
VEVSWEPGRREGCDICAGKAGCPI | 1.36
PEVSWEPGRREGCDICAGKAGCPI | 3.8
KEVSWEPGRREGCDICAGKAGCPI | 2.67
HEVSWEPGRREGCDICAGKAGCPI | 2.65
GEVSWEPGRREGCDICAGKAGCPI | 3.57
REVSWEPGRREGCDICAGKAGCPI | 3.51
MEVSWEPGRREGCDICAGKAGCPI | 3.37
DEVSWEPGRREGCDICAGKAGCPI | 3.94
AEVSWQPGRREGCDICAGKAGCPI | 2.78
AEVSWTPGRREGCDICAGKAGCPI | 2.79
AEVSWPPGRREGCDICAGKAGCPI | 3
AEVSWHPGRREGCDICAGKAGCPI | 5.82
AEVSWNPGRREGCDICAGKAGCPI | 3.49
AEVSWMPGRREGCDICAGKAGCPI | 2.6
AEVSWRPGRREGCDICAGKAGCPI | 3.04

Variant | protein stability index
AEVSWIPGRREGCDICAGKAGCPI | 2
AEVSWYPGRREGCDICAGKAGCPI | 1.76
AEVSWWPGRREGCDICAGKAGCPI | 1.56
AEVSWCPGRREGCDICAGKAGCPI | 2.23
AEVSWGPGRREGCDICAGKAGCPI | 2.36
AEVSWVPGRREGCDICAGKAGCPI | 2.66
AEVSWFPGRREGCDICAGKAGCPI | 2.14
ATVSWEPGRREGCDICAGKAGCPI | 2.84
ASVSWEPGRREGCDICAGKAGCPI | 2.94
ACVSWEPGRREGCDICAGKAGCPI | 2.91
AMVSWEPGRREGCDICAGKAGCPI | 2.83
AQVSWEPGRREGCDICAGKAGCPI | 2.36
ADVSWEPGRREGCDICAGKAGCPI | 3.79
ALVSWEPGRREGCDICAGKAGCPI | 3.09
AGVSWEPGRREGCDICAGKAGCPI | 3.38
AHVSWEPGRREGCDICAGKAGCPI | 2.02
ANVSWEPGRREGCDICAGKAGCPI | 3.51
AKVSWEPGRREGCDICAGKAGCPI | 1.92
ARVSWEPGRREGCDICAGKAGCPI | 1.99
AYVSWEPGRREGCDICAGKAGCPI | 2.68
AFVSWEPGRREGCDICAGKAGCPI | 1.23
AEESWEPGRREGCDICAGKAGCPI | 4.58
AETSWEPGRREGCDICAGKAGCPI | 3.66

Variant | protein stability index
AEWSWEPGRREGCDICAGKAGCPI | 3.27
AEDSWEPGRREGCDICAGKAGCPI | 4
AEPSWEPGRREGCDICAGKAGCPI | 3.87
AEGSWEPGRREGCDICAGKAGCPI | 4
AEYSWEPGRREGCDICAGKAGCPI | 3.54
AEKSWEPGRREGCDICAGKAGCPI | 4
AEQSWEPGRREGCDICAGKAGCPI | 3.17
AEMSWEPGRREGCDICAGKAGCPI | 1.9
AERSWEPGRREGCDICAGKAGCPI | 3.01
AESSWEPGRREGCDICAGKAGCPI | 3.34
AEHSWEPGRREGCDICAGKAGCPI | 4.16
AEFSWEPGRREGCDICAGKAGCPI | 2.68
AEASWEPGRREGCDICAGKAGCPI | 4.16
AEISWEPGRREGCDICAGKAGCPI | 2.23
AECSWEPGRREGCDICAGKAGCPI | 3.78
AEVSWEPGRREGCHICAGKAGCPI | 2.5
AEVSWEPGRREGCMICAGKAGCPI | 2.18
AEVSWEPGRREGCNICAGKAGCPI | 2.35
AEVSWEPGRREGCVICAGKAGCPI | 3.22
AEVSWEPGRREGCKICAGKAGCPI | 3.66
AEVSWEPGRREGCAICAGKAGCPI | 2.13
AEVSWEPGRREGCIICAGKAGCPI | 3.65
AEVSWERGRREGCDICAGKAGCPI | 2.53

Variant | protein stability index
AEVSWECGRREGCDICAGKAGCPI | 2.69
AEVSWEIGRREGCDICAGKAGCPI | 2.97
AEVSWEQGRREGCDICAGKAGCPI | 2.6
AEVSWEFGRREGCDICAGKAGCPI | 2.21
AEVSWEEGRREGCDICAGKAGCPI | 4
AEVSWEVGRREGCDICAGKAGCPI | 2.23
AEVSWEHGRREGCDICAGKAGCPI | 3.92
AEVSWESGRREGCDICAGKAGCPI | 2.77
AEVSWEYGRREGCDICAGKAGCPI | 2.9
AEVSWEPNRREGCDICAGKAGCPI | 3.41
AEVSWEPIRREGCDICAGKAGCPI | 2.78
AEVSWEPPRREGCDICAGKAGCPI | 3.24
AEVSWEPTRREGCDICAGKAGCPI | 2.72
AEVSWEPYRREGCDICAGKAGCPI | 1.74
AEVSWEPRRREGCDICAGKAGCPI | 2.77
AEVSWEPHRREGCDICAGKAGCPI | 2.54
AEVSWEPKRREGCDICAGKAGCPI | 3.03
AEVSWEPFRREGCDICAGKAGCPI | 2.46
AEVSWEPCRREGCDICAGKAGCPI | 3.67
AEVSWEPQRREGCDICAGKAGCPI | 3.99
AEVSWEPMRREGCDICAGKAGCPI | 2.59
AEVSWEPWRREGCDICAGKAGCPI | 2.01
AEVSWEPGRREGCDCCAGKAGCPI | 4.43
